Source: US6867180B1, “Use of calreticulin and calreticulin fragments to inhibit endothelial cell growth and angiogenesis, and suppress tumor growth” (The United States of America as represented by the …, priority 1998, dated 2005)

Experiments:
[1] = test system: peptides KLGFFKR, KAFFKR and KVFFKR coupled to CNBr-activated Sepharose; experiment: Affinity column binding to integrin / steroid receptor motif peptides; conditions: elution with 20 mM EDTA
Source text: FIG. 18 is a Western blot analysis of fractions obtained through affinity purification over a column containing KXaa1FFXaa2R (Seq. I.D. No. 11) and KXaa1GFFKR (Seq. I.D. No. 10). Purified supernatants from the VDS-0 cell line containing full length calreticulin and N-terminal fragments of calreticulin were affinity purified over a mixture of peptides KLGFFKR (Seq. I.D. No. 13), KAFFKR (Seq. I.D. No. 33) and KVFFKR (Seq. I.D. No. 32) coupled to CNBr-activated Sepharose. Starting material (lane 1), unbound material (lanes 2, 3) and bound material (lanes 4, 5) were separated by SDS-PAGE, transferred to nitrocellulose, and subsequently stained with a rabbit antiserum against human calreticulin.
To this end, purified preparations of the VDS-O cell line containing full length calreticulin (Seq. I.D. No. 3) as well as N-terminal calreticulin fragments were prepared and tested to determine how these components were retained over an affinity column. To prepare the affinity column, three peptides were synthesized ([…], Seq. I.D. 13; KAFFKR, Seq. I.D. No. 33; and KVFFKR, Seq. I.D. No. 32), purified, and coupled to CNBr-activated Sepharose 4B (Pharmacia). First, the ability of calreticulin, purified from the culture supernatant of the lymphoblastoid cell line VDS-O, to selectively bind to the column and be eluted by a buffer solution containing 20 mM EDTA and 100 mM NaCl, was verified. […]

[2] = test system: bFGF-induced neovascularization; experiment: Murine Matrigel assay of angiogenesis in vivo; parameters: species or system BALB/c nude mice; conditions: Exp. 4; concentration not given; bFGF 150 ng/ml
Protocol: The murine Matrigel assay (Passaniti et al., Lab. Invest. 67:519-528, 1992) was employed to evaluate the effects of calreticulin and calreticulin fragments on angiogenesis in vivo. The Matrigel assay was performed as described by Angiolillo et al. (J. Exp. Med. 182:155-162, 1995). Matrigel, a crude extract of the Englebreth-Holm-Swarm tumor, was obtained from Collaborative Biomedical Products, Becton Dickinson Labware, Bedford, Mass. An aliquot (0.5 ml) of Matrigel alone or with desired additives was injected subcutaneously (s.c.) into the mid abdominal region of female BALB/c nude mice, 6-8 weeks old. Five mice were injected with each mixture. After 5-7 days, the animals were sacrificed, Matrigel plugs were removed, fixed in 10% neutral buffered formalin solution (Sigma), and embedded in paraffin. Tissues were sectioned (5μ thickness), and slides stained with Masson's trichrome. Quantitative analysis of angiogenesis in Matrigel plugs utilized a computerized semi-automated digital analyzer (Optomax, 40-10 System, Hollis, N.H.). The instrument was adjusted to evaluate a circular area measuring […] of Matrigel, and within this area, to measure the area occupied by cells. For each plug, 12-15 distinct fields were evaluated. The fields were randomly selected from each plug, and the operator was blind to the experimental design. The average area occupied by cells/1.26×10^5 […] Matrigel field was calculated. Results are expressed as the mean area occupied by cells/Matrigel field.
Matrigel plugs were fixed in 10% neutral buffered formalin solution (Sigma), embedded in paraffin, sectioned at 4 μm, and stained with Masson's trichrome by standard methods.

[3] = test system: Fetal bovine heart endothelial cells
Protocol: Fetal bovine heart endothelial cells (American Type Culture Collection, ATCC, Manassas, Va.) were grown through passage 12 in DMEM culture medium (BioWhittaker, Walkersville, Md.) containing 10% heat inactivated fetal bovine serum (BioWhittaker), 100 ng/ml bFGF (R&D Systems, Minneapolis, Minn.), and 5 μg/ml gentamicin (Sigma). For proliferation assays, cells were trypsinized (Trypsin/EDTA, Gibco BRL), washed, suspended in culture medium (DMEM containing 10% heat inactivated fetal bovine serum and 5 μg/ml gentamicin), plated (800 cells/well in 0.2 ml culture medium) in triplicate onto 96 well plates, and incubated for 5 days.

[4] = test system: human Burkitt lymphoma cells (CA46 cell line); experiment: Prevention of human Burkitt lymphoma growth in athymic mice; type: in vivo, BALB/c athymic mice; conditions: 4×10^6 CA46 cells; 75 μg/day, 6 days/week, 42 days
Source text: FIGS. 6A, 6B, 6C and 6D are graphs showing the inhibition of tumor growth by vasostatin (Seq. I.D. No. 4) and calreticulin (Seq. I.D. No. 3). Burkitt lymphoma cells (CA46 cell line, 1×10^7 cells) were inoculated subcutaneously (s.c.) into BALB/c athymic mice, 6 weeks of age. Beginning on the day of cell inoculation and continuing thereafter daily, 6 days/week, mice were inoculated s.c. with either control buffer (open symbols) or test protein (closed symbols). The results reflect the % mice with tumor as a function of time. A. 12 mice were inoculated with control purified GST protein (Seq. I.D. No. 2; 20 μg/day×14 days), and 13 mice were inoculated with purified GST-calreticulin ([…]; 60 μg/day×14 days). […]
BALB/c nu/nu female mice, 6 weeks of age (National Cancer Institute, Frederick, Md.) maintained in pathogen-limited conditions, received 400 rad (1 rad=0.01 Gy) total body irradiation and 24 hours later were injected s.c. in the right abdominal quadrant with 10^7 exponentially growing human Burkitt lymphoma cells (CA46 cell line; Sgadari et al., Proc. Natl. Acad. Sci. U.S.A. 93:13791-13796, 1996) in 0.2 ml PBS. […] A subcutaneous mass appearing at or proximal to the site of cell inoculation was considered a tumor when it measured at least 0.16 cm^2 in surface area and increased in size by at least 0.1 cm^2 over the following week. […]

[5] = test system: human Burkitt lymphoma cell line CA46; experiment: Combination of vasostatin and IL-12 on human Burkitt lymphoma in nude mice; type: in vivo, BALB/c nude mice; conditions: both experiments; MBP-vasostatin 100 μg/day, mIL-12 100-200 ng/day s.c.
Protocol: Athymic BALB/c nude mice received 400 rad total body irradiation and 24 hours later were inoculated (4×10^6 cell/mouse) with the human Burkitt lymphoma cell line CA46. A and B. 5 days after cell inoculation the established tumors were treated with daily s.c. inoculations (6 days/week) of either formulation buffer alone (closed circles), MBP-vasostatin alone (Seq. I.D. No. 4; 100 μg/day; open squares), mIL-12 alone (200 ng/day for 8 days followed by 100 ng/day; open circles), or the combination of MBP-vasostatin (Seq. I.D. No. 4) and mIL-12 (same dose used as single agents; open triangles). All mice were sacrificed after 15 days of treatment. C and D. 1 day after cell inoculation, s.c. treatment with MBP-vasostatin (Seq. I.D. No. 4; 100 μg/day; 6 days/week) or formulation buffer was started; s.c. treatment with IL-12 (100 ng/mouse; 6 days/week) was started 2 days later in mice that had received buffer alone or MBP-vasostatin (Seq. I.D. No. 4). Therefore, four groups of mice were tested: Mice receiving buffer alone (closed circles); MBP-vasostatin alone (open squares); IL-12 alone (open circles); and MBP-vasostatin plus IL-12 (open triangles). The mice received 7 days treatment with MBP-vasostatin (Seq. I.D. No. 4) and 5 days treatment with IL-12, and were observed untreated for 14 days at which time all mice were sacrificed. […]

B1: MBP-120-180 calreticulin: recombinant 61 amino acid calreticulin fragment, amino acids 120-180 (Seq. I.D. No. 5), fused to MBP (protein)
chain: CGPGTKKVHVIFNYKGKNVLINKDIRCKDDEFTHLYTLIVRPDNTYEVKIDNSQVESGSLE
modifications: left off: large carriers
binding to peptide affinity column [1]: failed to bind | Inhibition (%) [2]: 70% | Mean Surface Area Occupied by Cells [2]: 2,458 mm^2/1.26 × 10^5 mm^2 | inhibition of fetal bovine heart endothelial cell proliferation ([3]; 0.5 μg/ml, bFGF-induced): 65% | endothelial cell growth inhibitory activity in vitro, side-by-side comparison on a molar basis ([3]; 0.4-32 nM, bFGF 15 ng/ml, 5 days): similar | rate of Burkitt tumor growth compared to controls [4]: significantly reduced

B2: mIL-12: murine IL-12 (Interleukin 12) (protein, UniProt P43431 23-215; P43432 23-335, looked up)
Interleukin-12 subunit alpha: RVIPVSGPARCLSQSRNLLKTTDDMVKTAREKLKHYSCTAEDIDHEDITRDQTSTLKTCLPLELHKNESCLATRETSSTTRGSCLPPQKTSLMMTLCLGSIYEDLKMYQTEFQAINAALQNHNHQQIILDKGMLVAIDELMQSLNHNGETLRQKPPVGEADPYRVKMKLCILLHAFSTRVVTINRVMGYLSSA
Interleukin-12 subunit beta: MWELEKDVYVVEVDWTPDAPGETVNLTCDTPEEDDITWTSDQRHGVIGSGKTLTITVKEFLDAGQYTCHKGGETLSHSHLLLHKKENGIWSTEILKNFKNKTFLKCEAPNYSGRFTCSWLVQRNMDLKFNIKSSSSSPDSRAVTCGMASLSAEKVTLDQRDYEKYSVSCQEDVTCPTAEETLPIELALEARQQNKYENYSTSFFIRDIIKPDPPKNLQMKPLKNSQVEVSWEYPDSWSTPHSYFSLKFFVRIQRKKEKMKETEEGCNQKGAFLVEKTSTEVQCKGGNVCVQAQDRYYNSSCSKWACVPCRVRS
rate of tumor growth and mean weight of tumors compared with formulation buffer [5]: reduced
